IntAct's records for PubMed 25775511

B1: Transducer of Cdc42-dependent actin assembly protein 2 homolog (Caenorhabditis elegans), Q9XUS7 (parent)
chain: MIPVSRFFTVQDPSNALLSYTQKGIDFFEKLGQFSKEKAAIEEEYSTKLRSLAKKYAKKSEEDDEILKSVSYTSSFNSFLQQLDQIATRHQTSAEHIRGGVVSYVASKTCQMRSSRKNAINDLKTINDKLEDQINEMCKSGKCYLKSFKDAENSYQKFYKADKNLEISRLELEKARALANARNEACELAKQDYSALVRKTNAEQKRYHVELLPVIFARLKAVDKECIADMRQVLQKIVSFDDSLADSTEECRKIMQREVGKIDAEGDAQLVLKSVEATIEQPAPFEIEDLGDPKNCDSRTNDSADGSGGKLLKSSPSKNRIIRNFLGILKEKEADEKPEASNNDQLMYTDKSKPAHVRLSCLRSKIRDMEKQLEQAIQGREGITRLQQAYYTNPQHGNPSACTEPLISYAKKIEKLKMDIHNLKEFYAMLEMSVEEGQERSFGGRDTPDTTRSMSGSSTNQSSSKTIEDVLSGEAGNSSSADDSSKNILRQLFTTPKRLISSPKTSKSSTPTPLRRRAEISSPKILRSSFSGAIRKSLSTPDSVKVETAVTVTALFEFAKSSAETMSIEQGEILLVLEHDHGDGWTRTKNCRKHNEESGFVPTSYLQFPQ

Variants of: B1
Details: with cdc42_caeel cdc-42, Q05062
Sequence of cdc42_caeel cdc-42, Q05062 (Q05062 whole entry): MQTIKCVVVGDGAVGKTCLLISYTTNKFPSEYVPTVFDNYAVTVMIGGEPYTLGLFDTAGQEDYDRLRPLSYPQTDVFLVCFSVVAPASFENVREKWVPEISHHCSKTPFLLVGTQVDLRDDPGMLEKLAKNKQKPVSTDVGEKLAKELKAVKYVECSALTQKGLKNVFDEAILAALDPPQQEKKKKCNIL

Variant | effect of a mutation on the interaction
I413S | disrupting interaction strength
